Results from article PMC9019814.

Assays:
[1] = target: citrate synthase (UniProt P00889)
[2] = target: alcohol dehydrogenase (UniProt P00330)
[3] = target: βB2-crystallin (calf (endogenous in calf lenses)) (UniProt P02522)
Chain of βB2-crystallin (calf (endogenous in calf lenses)) (P02522 whole entry): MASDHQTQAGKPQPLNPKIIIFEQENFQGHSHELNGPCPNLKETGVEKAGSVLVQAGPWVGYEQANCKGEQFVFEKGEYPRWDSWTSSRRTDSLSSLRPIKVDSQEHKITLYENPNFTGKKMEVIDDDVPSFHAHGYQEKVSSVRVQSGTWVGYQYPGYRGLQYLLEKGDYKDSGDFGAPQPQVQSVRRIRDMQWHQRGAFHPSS

Chain of human wild-type αA-crystallin (P02489 whole entry): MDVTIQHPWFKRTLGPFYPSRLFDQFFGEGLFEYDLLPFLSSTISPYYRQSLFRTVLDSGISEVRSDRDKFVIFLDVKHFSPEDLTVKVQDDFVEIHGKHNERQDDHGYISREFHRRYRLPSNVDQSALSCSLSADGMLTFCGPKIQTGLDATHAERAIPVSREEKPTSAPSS
Chain of alcohol dehydrogenase (P00330 whole entry): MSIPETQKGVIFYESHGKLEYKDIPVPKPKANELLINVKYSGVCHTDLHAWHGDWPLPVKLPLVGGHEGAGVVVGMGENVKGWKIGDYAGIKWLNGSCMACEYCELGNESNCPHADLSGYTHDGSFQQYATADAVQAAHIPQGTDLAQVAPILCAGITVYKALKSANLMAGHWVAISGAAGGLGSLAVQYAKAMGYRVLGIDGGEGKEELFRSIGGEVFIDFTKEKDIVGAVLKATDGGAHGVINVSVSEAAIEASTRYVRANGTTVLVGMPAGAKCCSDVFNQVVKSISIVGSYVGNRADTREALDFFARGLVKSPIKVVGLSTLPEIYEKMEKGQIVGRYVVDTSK
Chain of citrate synthase (P00889 28-464): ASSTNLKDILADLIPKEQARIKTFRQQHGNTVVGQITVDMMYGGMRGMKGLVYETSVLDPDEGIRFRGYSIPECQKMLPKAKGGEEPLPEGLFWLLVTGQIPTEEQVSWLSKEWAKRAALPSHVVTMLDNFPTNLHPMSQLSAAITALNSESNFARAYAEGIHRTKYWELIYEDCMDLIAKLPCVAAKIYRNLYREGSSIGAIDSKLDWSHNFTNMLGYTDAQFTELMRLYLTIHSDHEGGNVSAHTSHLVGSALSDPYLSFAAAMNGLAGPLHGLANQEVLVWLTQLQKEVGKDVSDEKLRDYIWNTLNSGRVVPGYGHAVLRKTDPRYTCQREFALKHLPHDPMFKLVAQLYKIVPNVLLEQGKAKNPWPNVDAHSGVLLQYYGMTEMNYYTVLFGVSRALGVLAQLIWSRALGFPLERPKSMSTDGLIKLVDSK

## human wild-type αA-crystallin (from UniProt P02489 1-173) (natural protein)
[1]
  amount of chaperone protein for fifty percent protection from thermal aggregation of CS (75 µg in 1 ml) at 43°C, scattering at 360 nm at 60 min: 22 µg
[2]
  EC50 of chaperone protein for suppression of EDTA-induced aggregation of ADH (250 µg in 1 ml) at 37°C, scattering at 360 nm at 60 min: 45 µg
[3]
  amount of chaperone protein that suppresses the aggregation of βB2-crystallin (250 µg in 1 ml) at 37°C by 50%, scattering at 360 nm at 60 min: 30 µg
